# In publication PMC8401098, “The Uncommon Active Site of D-Amino Acid Transaminase from Haliscomenobacter hydrossis: Biochemical and Structural Insights into the New Enzyme” (Molecules, 2021):
# Legend:
# [1] = molecular target: T1, Halhy (D-amino acid transaminase from Haliscomenobacter hydrossis) (Haliscomenobacter hydrossis, UniProt F4KWH0); experiment: X-ray crystal structure, […] Å; assay type: binding; conditions: covalent; Schiff base with K143; holo form, pH 4.8
# T1 construct: gene Halhy_2446; N-terminal His6-TEV tag cut off with TEV protease; E. coli Rosetta(DE3) pLysS; codon-optimised synthetic gene; homodimer (about 62 kDa by gel filtration)
# purified protein [2] = substrate: O=C(O)CCC(=O)C(=O)O; experiment: purified protein; assay type: biochemical, Haliscomenobacter hydrossis; conditions: D-alanine 40 mM, 50 mM K-phosphate pH 8, 30 µM PLP
# purified protein [3] = substrate: C[C@@H](N)C(=O)O; experiment: purified protein; conditions: α-ketoglutarate 5 mM, 50 mM K-phosphate pH 8, 30 µM PLP, 40 °C
# purified protein [4] = substrate: N[C@H](CCC(=O)O)C(=O)O; experiment: purified protein; assay type: biochemical, Haliscomenobacter hydrossis; conditions: pyruvate 2.5 mM, 50 mM K-phosphate pH 8, 30 µM PLP, 40 °C
# purified protein [5] = substrate: CC(=O)C(=O)O; experiment: purified protein; assay type: biochemical, Haliscomenobacter hydrossis; conditions: D-glutamate 4 mM, 50 mM K-phosphate pH 8, 30 µM PLP, 40 °C
# [6] = substrate: CC(C)C[C@@H](N)C(=O)O; experiment: steady-state kinetics of overall transamination (HPLC of 4-methyl-2-oxovalerate); assay type: biochemical, Haliscomenobacter hydrossis; conditions: α-ketoglutarate 5 mM, 50 mM K-phosphate pH 8, 30 µM PLP, 40 °C
# Excerpt: steady-state kinetics of overall transamination (HPLC of 4-methyl-2-oxovalerate) on Halhy (D-amino acid transaminase from Haliscomenobacter hydrossis)
# [7] = substrate: CC(C)CC(=O)C(=O)O; experiment: steady-state kinetics of overall transamination; assay type: biochemical, Haliscomenobacter hydrossis; conditions: D-alanine 40 mM, 50 mM K-phosphate pH 8, 30 µM PLP, 40 °C
# Excerpt: steady-state kinetics of overall transamination on Halhy (D-amino acid transaminase from Haliscomenobacter hydrossis)
molecule,measurement,setting,value
Cc1ncc(COP(=O)(O)O)c(C=O)c1O [pyridoxal-5'-phosphate],"X-ray crystal structure, 2.0 Å",[1],structure of WT Halhy in the holo form with a covalently bound PLP was determined
"Halhy (D-amino acid transaminase from Haliscomenobacter hydrossis) (Haliscomenobacter hydrossis DSM 1100; R179G) (protein, N-terminal His6-TEV tag cut off with TEV protease; E. coli Rosetta(DE3) pLysS; codon-optimised synthetic gene; homodimer (about 62 kDa by gel filtration)) MIKYYNINGQQVPVENATLHVSDLSILRGYGIFDYFLAREGHPLFLDDYLNRFYRSAAELYLEIPFDKAELRRQIYALLQANEVREAGIRLVLTGGYSPDGYTPVNPNLLIMMYDLPASAWEFSAQGIKIITHPFQRELPEVKTINYSTGIRMLKTIKERGATDLIYVDQGEWIRESAGSNFFLVMPDNTIVTADEKILWGITRRQVIDAAREAGYAVEERRIHITELDQAREAFFTSTIKGVMAIGQIDDRVFGDGTIGKVTQELQDLFVGKVKAYLETC",Km,purified protein [2]; 25 °C,8.1 ± 0.8 mM
same,kcat,purified protein [2]; 25 °C,8.6 ± 0.6 s⁻¹
same,kcat/Km,purified protein [2]; 25 °C,1100 M⁻¹ s⁻¹
"Halhy (D-amino acid transaminase from Haliscomenobacter hydrossis) (Haliscomenobacter hydrossis DSM 1100) (protein, N-terminal His6-TEV tag cut off with TEV protease; E. coli Rosetta(DE3) pLysS; codon-optimised synthetic gene; homodimer (about 62 kDa by gel filtration)) MIKYYNINGQQVPVENATLHVSDLSILRGYGIFDYFLAREGHPLFLDDYLNRFYRSAAELYLEIPFDKAELRRQIYALLQANEVREAGIRLVLTGGYSPDGYTPVNPNLLIMMYDLPASAWEFSAQGIKIITHPFQRELPEVKTINYSTGIRMLKTIKERGATDLIYVDQGEWIRESARSNFFLVMPDNTIVTADEKILWGITRRQVIDAAREAGYAVEERRIHITELDQAREAFFTSTIKGVMAIGQIDDRVFGDGTIGKVTQELQDLFVGKVKAYLETC",Km,purified protein [3],23 ± 1 mM
same,kcat,purified protein [3],146 ± 4 s⁻¹
same,kcat/Km,purified protein [3],6300 M⁻¹ s⁻¹
same,Km,purified protein [4],10.3 ± 0.7 mM
same,kcat,purified protein [4],215 ± 6 s⁻¹
same,kcat/Km,purified protein [4],21000 ± 2000 M⁻¹ s⁻¹
same,Km,purified protein [2]; 40 °C,2.3 ± 0.2 mM
same,kcat,purified protein [2]; 40 °C,146 ± 4 s⁻¹
same,kcat/Km,purified protein [2]; 40 °C,63000 ± 7000 M⁻¹ s⁻¹
same,Km,purified protein [5],2.1 ± 0.1 mM
same,kcat,purified protein [5],215 ± 6 s⁻¹
same,kcat/Km,purified protein [5],103000 ± 8000 M⁻¹ s⁻¹
same,Km,[6],83 ± 8 mM
same,kcat,[6],10.5 ± 0.4 s⁻¹
same,kcat/Km,[6],130 M⁻¹ s⁻¹
same,Km,[7],70 ± 6 mM
same,kcat,[7],4.2 ± 0.1 s⁻¹
same,kcat/Km,[7],60 M⁻¹ s⁻¹
